According to patent publication US20180155451A1 (published 2018):

B1: GpH7-B3 variant (T335_07I)/GpL16-k0 (antibody, human IgG1, kappa)
heavy: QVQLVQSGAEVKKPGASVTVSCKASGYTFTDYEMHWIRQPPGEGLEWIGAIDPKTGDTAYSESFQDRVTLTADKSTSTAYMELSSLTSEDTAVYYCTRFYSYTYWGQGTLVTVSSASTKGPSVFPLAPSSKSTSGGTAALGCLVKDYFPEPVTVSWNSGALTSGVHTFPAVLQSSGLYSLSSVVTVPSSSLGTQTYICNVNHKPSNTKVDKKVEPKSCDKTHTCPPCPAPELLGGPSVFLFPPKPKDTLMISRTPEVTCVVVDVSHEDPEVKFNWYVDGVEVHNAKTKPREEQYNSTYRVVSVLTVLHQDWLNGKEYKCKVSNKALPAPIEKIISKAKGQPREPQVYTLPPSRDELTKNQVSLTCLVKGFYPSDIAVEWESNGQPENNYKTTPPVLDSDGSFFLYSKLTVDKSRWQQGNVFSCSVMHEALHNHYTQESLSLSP
light: DIVMTQSPLSLPVTPGEPASISCQASESLVHSNRNTYLHWYLQKPGQSPQLLIYKVSNRFSGVPDRFSGSGSGTDFTLKISRVEAEDVGVYYCSQNTHVPPTFGQGTKVEIERTVAAPSVFIFPPSDEQLKSGTASVVCLLNNFYPREAKVQWKVDNALQSGNSQESVTEQDSKDSTYSLSSTLTLSKADYEKHKVYACEVTHQGLSSPVTKSFNRGEC
notes: Homodimerized; both H chains altered; also called Ho Ab T335_07I
B2: GpH7-B3 variant (Y296_16H)/GpL16-k0 (antibody, human IgG1, kappa)
heavy: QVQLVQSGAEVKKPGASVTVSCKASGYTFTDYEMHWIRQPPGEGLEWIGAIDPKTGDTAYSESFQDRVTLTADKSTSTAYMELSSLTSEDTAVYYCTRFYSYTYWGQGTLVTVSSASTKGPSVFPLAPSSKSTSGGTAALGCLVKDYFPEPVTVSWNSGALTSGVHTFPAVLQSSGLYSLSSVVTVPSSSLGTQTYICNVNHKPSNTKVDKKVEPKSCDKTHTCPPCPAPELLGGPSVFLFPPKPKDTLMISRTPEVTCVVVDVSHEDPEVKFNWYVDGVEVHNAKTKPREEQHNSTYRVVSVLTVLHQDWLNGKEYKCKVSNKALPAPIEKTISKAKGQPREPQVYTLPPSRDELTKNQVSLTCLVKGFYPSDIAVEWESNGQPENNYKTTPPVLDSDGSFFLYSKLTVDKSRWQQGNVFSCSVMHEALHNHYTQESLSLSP
light: B1 light
notes: Homodimerized; both H chains altered; also called Ho Ab Y296_16H
B3: GpH7-B3 variant (T335_09D)/GpL16-k0 (antibody, human IgG1, kappa)
heavy: not shown
light: B1 light
notes: Homodimerized; both H chains altered; also called Ho Ab T335_09D
B4: GpH7-B3 variant (Y300_11K)/GpL16-k0 (antibody, human IgG1, kappa)
heavy: not shown
light: B1 light
notes: Homodimerized; both H chains altered; also called Ho Ab Y300_11K
B5: GpH7-B3 variant (Y300_06M)/GpL16-k0 (antibody, human IgG1, kappa)
heavy: not shown
light: B1 light
notes: Homodimerized; both H chains altered; also called Ho Ab Y300_06M
B6: GpH7-B3 variant (T335_19Q)/GpL16-k0 (antibody, human IgG1, kappa)
heavy: not shown
light: B1 light
notes: Homodimerized; both H chains altered; also called Ho Ab T335_19Q
B7: GpH7-B3 variant (T335_08L)/GpL16-k0 (antibody, human IgG1, kappa)
heavy: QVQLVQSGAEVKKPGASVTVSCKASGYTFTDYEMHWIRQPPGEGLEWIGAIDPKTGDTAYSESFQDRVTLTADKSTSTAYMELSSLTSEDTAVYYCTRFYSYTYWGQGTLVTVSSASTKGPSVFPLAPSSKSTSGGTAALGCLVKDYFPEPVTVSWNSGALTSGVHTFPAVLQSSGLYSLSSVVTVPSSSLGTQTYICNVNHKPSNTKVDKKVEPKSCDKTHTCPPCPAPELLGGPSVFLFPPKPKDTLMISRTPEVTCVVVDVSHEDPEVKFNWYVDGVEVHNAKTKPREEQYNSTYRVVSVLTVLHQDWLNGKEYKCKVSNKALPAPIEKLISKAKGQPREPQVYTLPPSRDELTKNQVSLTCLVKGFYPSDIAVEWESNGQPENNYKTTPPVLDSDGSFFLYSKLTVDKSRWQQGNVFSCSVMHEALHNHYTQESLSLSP
light: B1 light
notes: Homodimerized; both H chains altered; also called Ho Ab T335_08L
B8: GpH7-B3 variant (Y296_12R)/GpL16-k0 (antibody, human IgG1, kappa)
heavy: not shown
light: B1 light
notes: Homodimerized; both H chains altered; also called Ho Ab Y296_12R
B9: GpH7-B3 variant (T335_20W)/GpL16-k0 (antibody, human IgG1, kappa)
heavy: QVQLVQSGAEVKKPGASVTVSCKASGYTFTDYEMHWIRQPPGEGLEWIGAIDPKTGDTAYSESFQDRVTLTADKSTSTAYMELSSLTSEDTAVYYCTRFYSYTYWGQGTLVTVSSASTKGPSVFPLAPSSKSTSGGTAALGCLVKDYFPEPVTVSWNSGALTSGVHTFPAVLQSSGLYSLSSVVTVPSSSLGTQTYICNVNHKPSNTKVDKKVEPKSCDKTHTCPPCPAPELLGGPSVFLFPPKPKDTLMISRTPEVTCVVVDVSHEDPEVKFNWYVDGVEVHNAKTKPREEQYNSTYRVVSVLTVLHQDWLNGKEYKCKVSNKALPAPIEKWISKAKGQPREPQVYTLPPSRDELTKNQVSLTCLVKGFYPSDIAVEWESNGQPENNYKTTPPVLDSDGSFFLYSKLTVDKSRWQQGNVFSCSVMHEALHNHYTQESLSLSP
light: B1 light
notes: Homodimerized; both H chains altered; also called Ho Ab T335_20W
B10: GpH7-B3 variant (Y296_20W)/GpL16-k0 (antibody, human IgG1, kappa)
heavy: not shown
light: B1 light
notes: Homodimerized; both H chains altered; also called Ho Ab Y296_20W
B11: GpH7-B3 variant (T335_18N)/GpL16-k0 (antibody, human IgG1, kappa)
heavy: not shown
light: B1 light
notes: Homodimerized; both H chains altered; also called Ho Ab T335_18N
B12: GpH7-B3 variant (Y296_11K)/GpL16-k0 (antibody, human IgG1, kappa)
heavy: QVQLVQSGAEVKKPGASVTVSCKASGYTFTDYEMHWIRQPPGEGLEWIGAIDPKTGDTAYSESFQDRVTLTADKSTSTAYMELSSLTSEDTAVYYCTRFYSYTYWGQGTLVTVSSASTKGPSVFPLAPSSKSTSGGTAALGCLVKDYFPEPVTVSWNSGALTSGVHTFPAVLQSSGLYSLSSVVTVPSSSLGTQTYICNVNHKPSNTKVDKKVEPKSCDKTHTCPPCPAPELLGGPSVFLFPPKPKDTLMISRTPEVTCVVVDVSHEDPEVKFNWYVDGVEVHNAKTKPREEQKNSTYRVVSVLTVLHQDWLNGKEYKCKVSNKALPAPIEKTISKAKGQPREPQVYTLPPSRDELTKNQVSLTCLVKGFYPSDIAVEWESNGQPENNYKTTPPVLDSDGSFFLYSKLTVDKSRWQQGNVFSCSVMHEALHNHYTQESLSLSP
light: B1 light
notes: Homodimerized; both H chains altered; also called Ho Ab Y296_11K
B13: GpH7-B3 variant (Y296_06M)/GpL16-k0 (antibody, human IgG1, kappa)
heavy: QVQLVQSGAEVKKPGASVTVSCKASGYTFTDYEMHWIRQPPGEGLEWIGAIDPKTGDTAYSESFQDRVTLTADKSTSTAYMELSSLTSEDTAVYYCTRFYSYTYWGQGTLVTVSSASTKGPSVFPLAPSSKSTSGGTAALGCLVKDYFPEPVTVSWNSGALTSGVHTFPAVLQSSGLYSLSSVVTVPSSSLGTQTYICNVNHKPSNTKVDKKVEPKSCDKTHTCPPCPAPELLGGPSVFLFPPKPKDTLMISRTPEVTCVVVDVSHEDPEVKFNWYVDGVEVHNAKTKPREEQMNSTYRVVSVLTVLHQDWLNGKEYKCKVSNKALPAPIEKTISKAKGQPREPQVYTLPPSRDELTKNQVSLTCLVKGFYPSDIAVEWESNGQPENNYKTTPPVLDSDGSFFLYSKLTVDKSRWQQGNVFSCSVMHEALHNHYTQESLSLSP
light: B1 light
notes: Homodimerized; both H chains altered; also called Ho Ab Y296_06M
B14: GpH7-B3 variant (T335_12R)/GpL16-k0 (antibody, human IgG1, kappa)
heavy: not shown
light: B1 light
notes: Homodimerized; both H chains altered; also called Ho Ab T335_12R
B15: GpH7-B3 variant (Y300_02A)/GpL16-k0 (antibody, human IgG1, kappa)
heavy: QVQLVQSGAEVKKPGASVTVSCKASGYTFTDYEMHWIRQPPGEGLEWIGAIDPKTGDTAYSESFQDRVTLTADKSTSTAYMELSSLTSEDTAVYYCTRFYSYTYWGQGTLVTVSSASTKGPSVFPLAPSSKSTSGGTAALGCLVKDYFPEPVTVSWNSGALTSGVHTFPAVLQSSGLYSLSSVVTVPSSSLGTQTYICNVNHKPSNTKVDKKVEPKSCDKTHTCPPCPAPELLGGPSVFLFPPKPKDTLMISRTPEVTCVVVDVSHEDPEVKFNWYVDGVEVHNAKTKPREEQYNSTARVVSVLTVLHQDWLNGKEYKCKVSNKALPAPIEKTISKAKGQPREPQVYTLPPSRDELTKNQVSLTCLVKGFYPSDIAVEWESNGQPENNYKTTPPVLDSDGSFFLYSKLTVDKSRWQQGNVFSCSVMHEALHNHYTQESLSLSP
light: B1 light
notes: Homodimerized; both H chains altered; also called Ho Ab Y300_02A
B16: GpH7-B3 variant (Y300_14T)/GpL16-k0 (antibody, human IgG1, kappa)
heavy: not shown
light: B1 light
notes: Homodimerized; both H chains altered; also called Ho Ab Y300_14T
B17: GpH7-B3 variant (T335_15Y)/GpL16-k0 (antibody, human IgG1, kappa)
heavy: not shown
light: B1 light
notes: Homodimerized; both H chains altered; also called Ho Ab T335_15Y
B18: GpH7-B3 variant (T335_10E)/GpL16-k0 (antibody, human IgG1, kappa)
heavy: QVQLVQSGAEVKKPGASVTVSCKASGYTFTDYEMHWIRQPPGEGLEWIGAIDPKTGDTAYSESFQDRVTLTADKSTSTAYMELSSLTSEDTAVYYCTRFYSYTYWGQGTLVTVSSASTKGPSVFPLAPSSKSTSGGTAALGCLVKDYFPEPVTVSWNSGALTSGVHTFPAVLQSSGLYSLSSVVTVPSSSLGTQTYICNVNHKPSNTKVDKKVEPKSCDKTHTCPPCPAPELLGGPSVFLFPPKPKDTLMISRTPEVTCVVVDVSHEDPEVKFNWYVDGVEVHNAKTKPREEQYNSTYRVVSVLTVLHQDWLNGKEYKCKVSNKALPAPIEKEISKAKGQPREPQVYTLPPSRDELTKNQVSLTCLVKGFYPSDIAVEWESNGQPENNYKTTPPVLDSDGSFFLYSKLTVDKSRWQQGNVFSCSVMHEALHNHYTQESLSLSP
light: B1 light
notes: Homodimerized; both H chains altered; also called Ho Ab T335_10E
B19: GpH7-B3 variant (T335_11K)/GpL16-k0 (antibody, human IgG1, kappa)
heavy: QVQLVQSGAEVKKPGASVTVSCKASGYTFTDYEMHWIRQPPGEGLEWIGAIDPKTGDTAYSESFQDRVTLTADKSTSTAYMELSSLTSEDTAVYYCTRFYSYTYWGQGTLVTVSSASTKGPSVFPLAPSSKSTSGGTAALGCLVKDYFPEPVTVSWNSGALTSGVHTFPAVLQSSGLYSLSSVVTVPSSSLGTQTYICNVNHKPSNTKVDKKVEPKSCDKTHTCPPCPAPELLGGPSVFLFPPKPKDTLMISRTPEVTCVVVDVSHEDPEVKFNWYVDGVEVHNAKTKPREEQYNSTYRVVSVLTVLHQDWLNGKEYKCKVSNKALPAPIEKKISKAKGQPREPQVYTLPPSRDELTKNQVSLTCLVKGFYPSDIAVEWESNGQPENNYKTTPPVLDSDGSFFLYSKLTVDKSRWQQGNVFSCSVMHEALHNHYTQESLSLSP
light: B1 light
notes: Homodimerized; both H chains altered; also called Ho Ab T335_11K
B20: GpH7-B3 variant (Y300_03V)/GpL16-k0 (antibody, human IgG1, kappa)
heavy: not shown
light: B1 light
notes: Homodimerized; both H chains altered; also called Ho Ab Y300_03V
B21: GpH7-B3 variant (Y300_13S)/GpL16-k0 (antibody, human IgG1, kappa)
heavy: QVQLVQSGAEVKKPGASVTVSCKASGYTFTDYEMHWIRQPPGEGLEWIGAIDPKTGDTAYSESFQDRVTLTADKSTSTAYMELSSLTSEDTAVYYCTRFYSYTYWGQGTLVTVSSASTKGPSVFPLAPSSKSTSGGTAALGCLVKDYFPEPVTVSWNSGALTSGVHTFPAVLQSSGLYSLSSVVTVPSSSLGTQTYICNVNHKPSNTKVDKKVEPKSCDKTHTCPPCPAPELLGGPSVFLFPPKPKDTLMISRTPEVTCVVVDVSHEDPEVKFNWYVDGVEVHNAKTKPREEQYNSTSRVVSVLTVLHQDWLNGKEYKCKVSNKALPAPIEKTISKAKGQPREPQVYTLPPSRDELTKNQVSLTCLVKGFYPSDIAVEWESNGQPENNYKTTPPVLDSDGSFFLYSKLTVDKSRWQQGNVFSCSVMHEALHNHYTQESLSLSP
light: B1 light
notes: Homodimerized; both H chains altered; also called Ho Ab Y300_13S
B22: GpH7-B3 variant (T335_16H)/GpL16-k0 (antibody, human IgG1, kappa)
heavy: not shown
light: B1 light
notes: Homodimerized; both H chains altered; also called Ho Ab T335_16H
B23: GpH7-B3 variant (Y300_08L)/GpL16-k0 (antibody, human IgG1, kappa)
heavy: not shown
light: B1 light
notes: Homodimerized; both H chains altered; also called Ho Ab Y300_08L

Each binder was assayed against T1, FcγRIa extracellular domain with C-terminal His tag (human, UniProt P12314 16-292) (assay: SPR (Biacore), captured antibody, FcγRIa analyte; relative to GpH7-B3/GpL16-k0 = 100).
T1 construct: extracellular domain; Expressed in FreeStyle293 cells; used as analyte in Biacore; also called FcgRI; 1a; not shown: His tag at the C terminus
T1 sequence (P12314 16-292): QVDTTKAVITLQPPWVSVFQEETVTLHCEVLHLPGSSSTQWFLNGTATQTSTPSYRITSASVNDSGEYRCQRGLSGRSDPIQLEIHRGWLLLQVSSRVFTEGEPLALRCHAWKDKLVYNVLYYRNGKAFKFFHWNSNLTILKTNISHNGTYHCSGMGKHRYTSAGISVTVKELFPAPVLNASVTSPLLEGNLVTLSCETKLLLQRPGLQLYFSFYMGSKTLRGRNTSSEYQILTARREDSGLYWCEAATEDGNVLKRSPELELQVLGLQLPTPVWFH

Ho/Con_1a	Binder
105 % of control	B1
105 % of control	B2
107 % of control	B3
101 % of control	B4
111 % of control	B5
105 % of control	B6
105 % of control	B7
103 % of control	B8
104 % of control	B9
106 % of control	B10
102 % of control	B11
102 % of control	B12
104 % of control	B13
106 % of control	B14
110 % of control	B15
110 % of control	B16
106 % of control	B17
108 % of control	B18
103 % of control	B19
112 % of control	B20
110 % of control	B21
104 % of control	B22
109 % of control	B23
